The target of test [1] is T1, B Lymphocyte Stimulator, soluble form (human) (human, UniProt Q9Y275 134-285, biotinylated with NHS-biotin where used as biotinylated B Lymphocyte Stimulator).
T1 construct: Coated on plastic, captured on streptavidin plates, amine-coupled to a CM5 chip or free in solution, depending on the assay; also called BLyS; immobilized B Lymphocyte Stimulator
The test can be described thus: phage competition ELISA. For orientation: ELISA stands for enzyme-linked immunosorbent assay.

In another test the target is T2, TNF-beta (human, UniProt P01374 35-205).
T2 construct: also called TNFβ; Tumour Necrosis Factor-beta
T2 sequence (looked up): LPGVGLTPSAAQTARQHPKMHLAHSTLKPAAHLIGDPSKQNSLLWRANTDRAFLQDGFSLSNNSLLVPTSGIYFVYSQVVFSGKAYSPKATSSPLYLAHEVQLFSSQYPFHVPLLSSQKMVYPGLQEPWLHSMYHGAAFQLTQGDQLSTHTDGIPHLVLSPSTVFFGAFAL
Briefly: phage ELISA.

For a further test, the target named is T3, TRAIL (human, UniProt P50591 114-281).
T3 construct: also called TNF-related apoptosis inducing ligand
The test can be described thus: phage ELISA.

The target of test [2] is T4, membrane-bound B Lymphocyte Stimulator on U937 plasma membrane preparations (human, UniProt Q9Y275 1-285).
T4 construct: Natural protein in plasma membrane fractions of the human cell line U937 coated on ELISA plates; also called U937 plasma membranes; U937 membranes
Briefly: phage ELISA.

For another test, the target named is T5, Fas ligand (human, UniProt P48023 134-281, limits assumed).
T5 sequence (looked up): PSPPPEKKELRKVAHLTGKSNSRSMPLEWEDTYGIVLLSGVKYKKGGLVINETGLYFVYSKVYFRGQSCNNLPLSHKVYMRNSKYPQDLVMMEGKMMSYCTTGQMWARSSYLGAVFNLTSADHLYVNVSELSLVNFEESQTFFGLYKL
The test can be described thus: phage ELISA.

Another test has as its target T6, TNF-alpha (human, UniProt P01375 77-233).
T6 construct: also called TNFα; TNF-α
Briefly: phage ELISA.

T3 sequence (P50591 114-281 limits assumed): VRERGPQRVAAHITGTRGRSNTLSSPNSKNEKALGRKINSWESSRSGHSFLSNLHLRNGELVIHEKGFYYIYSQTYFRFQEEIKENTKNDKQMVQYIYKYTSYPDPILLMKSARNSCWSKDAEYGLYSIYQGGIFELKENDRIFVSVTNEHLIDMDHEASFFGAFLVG
T6 sequence (P01375 77-233 limits assumed): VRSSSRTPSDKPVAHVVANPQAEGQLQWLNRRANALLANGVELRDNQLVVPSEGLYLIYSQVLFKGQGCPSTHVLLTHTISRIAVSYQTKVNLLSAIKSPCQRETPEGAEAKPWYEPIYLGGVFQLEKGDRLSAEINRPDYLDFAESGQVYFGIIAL

B1: I016E05 (scFv)
scFv: QVQLQQSGAEVKKPGASVKVSCKASGYTFTKYTMHWVRQAPGQGPEWMGWINGGSGDTKYSRKFQGRVTITKDTSASAAYMELSSLGSEDTALYYCARATYDPLTGYSFDGFDIWGKGTMVTVSSGGGGSGGGGSGGGGSQSALTQPASVSGSPGQSITISCTGTSSDVGGYNYVSWYQQHPGKAPKLMIYEGSKRPSGVSNRFSGSKSGNTASLTISGLQAEDEADYYCSSYTTRSTRVFGGGTKLTVLG
On to B1, for which the binding result in test [1] is given as “binds”; in the test with TNF-beta, “no binding”; with TRAIL it was “no binding”; in test [2] it was “binds”; with Fas ligand, “no binding”; in the test with TNF-alpha, “no binding”.

B2: I018H08 (scFv)
scFv: QVQLQQSGAEVKKPGASVNVSCKASGYTFTKYTMHWVRQAPGQGPEWMGWINGGSGDTKYSRKFQGRVTITKDTSASAAYMELSSLGSEDTALYYCARATYDPLTGYSFDGFDIWGQGTMVTVSSGGGGSGGGGSGGGGSQSVLTQPASVSGSPGQSITISCTGTSSDVGGYNYVSWYQQHPGKAPKLMIYEGSKRPSGVSNRFSGSKSGNTASLTISGLQAEDEADYYCSSYTTRSTRVFGGGTKLTILG
notes: also called 1018H08
On to B2, for which the binding result in test [1] is recorded as “binds”; in the test with TNF-beta, “no binding”; with TRAIL it was “no binding”; in test [2] it was “binds”; with Fas ligand it was “no binding”; with TNF-alpha, “no binding”.

B3: I018H09 (scFv)
scFv: QVQLQQSGAEVKKPGASVKVSCKASGYTFTKYTMHWVRQAPGQGPEWMGWINGGSGDTKYSRKFQGRVTITKDTSASATYMELSSLGSEDTALYYCARATYDPLTGYSFDGFDIWGKGTMVTVSSGGGGSGGGGSGGGGSQSVLTQPASVSGSPGQSITISCTGTSSDVGGYNYVSWYQQHPGKAPKLMIYEGSKRPSGVSNRFSGSKSGNTASLTISGLQAEDEADYYCSSYTTRSTRVFGGGTKLTVLG
For B3, the binding result in test [1] is reported as “binds”; in the test with TNF-beta, “no binding”; with TRAIL, “no binding”; in test [2] it was “binds”; with Fas ligand it was “no binding”; with TNF-alpha it was “no binding”.

B4: I003F12S (scFv)
scFv: QVQLLQSAAELKKPGQSLKISCKGSGFTFTTYWIGWVRQLPGKGLEWMGIIYPGDSHTTYSPSFEGHVNISVDKSINTAYLQWSSLKASDTAMYYCARHDDDVLTGYYFESWGQGTMVTVSSGGGGSGGGGSGGGGSQSVLTQPASVSGSPGQSITISCTGTSSDVGGYNYVSWYQQHPGKAPKLMIYEGSKRPSGVSNRFSGSKSGNTASLTISGLQAEDEADYYCSSYTTRSTRVFGGGTKLTVLG
For B4, the binding result with TNF-beta, in the test with TRAIL, in the test with Fas ligand and with TNF-alpha was “no binding” in each case.

B5: I008C02 (scFv)
scFv: AVQLQESGPGLVKPSETLSLTCSVSGASMTTNKFYWSWIRQPPGKGLEWIGNINYSKSTNYNPSLKSRITISVDTSKNQLSLKLNSVTAADTAVYYCARHVRDYDILTGYYRGHYFDYWGQGTMVTVSSGGGGSGGGGSGGGGSQSVLTQPASVSGSPGQSITISCTGTSSDVGGYNYVSWYQQHPGKAPKLMIYEGSKRPSGVSNRFSGSKSGNTASLTISGLQAEDEADYYCSSYTTRSTRVFGGGTKLTVLG
Regarding B5, the binding result in test [1] was “binds”; with TNF-beta, “no binding”; with TRAIL it was “no binding”; in test [2], “binds”; in the test with Fas ligand it was “no binding”; with TNF-alpha it was “no binding”.

B6: I061E07 (scFv)
scFv: QVQLQQSGAEVKKTGASVKVSCKASGYIFADYYVHWVRQAAGQGLEWMGWINPNTGSTKYAQKFQDRVTMTRDTSIKTVYMELRRLRSDDTALYYCARATYDPLTGYSFDGFDIWGKGTMVTVSSGGGGSGGGGSGGGGSQSVLTQPPSASGTPGQRVTISCSGSSSNIGSNTVNWYQRLPGAAPQLLIYNNDQRPSGIPDRFSGSKSGTSGSLVISGLQSEDEADYYCASWDDSLNGRVFGGGTKLTVLG
Regarding B6, the binding result in test [1] was “binds”; with TNF-beta, “no binding”; in the test with TRAIL, “no binding”; in test [2] it was “binds”; in the test with Fas ligand, “no binding”; with TNF-alpha, “no binding”.

B7: I029D07 (scFv)
scFv: QVQLQQSGAEVKKPGSSVKVSCKASGYTFTKYTMHWVRQAPGQGPEWMGWINGGSGDTKYSRKFQGRVTITKDTSASAAYMELSSLGSEDTALYYCARATYDPLTGYSFDGFDIWGQGTLVTVSSGGGGSGGGGSGGGGSQSVLTQPASVSGSPGQSITISCTGTSSDVGGYNYVSWYQQHPGKAPKLMIYDVSKRPSGVPDRFSGSKSGNTASLTISGLQAEDEGDYYCSSYAGPSRVFGGGTKVEIKR
In the case of B7, the binding result in test [1] is “binds”; with TNF-beta it was “no binding”; with TRAIL, “no binding”; in test [2], “binds”; with Fas ligand it was “no binding”; in the test with TNF-alpha it was “no binding”.

B8: I018C02 (scFv)
scFv: QVQLQQSGSELKKPGASVIVSCKVSGYSLTKMSMHWVRQSPGEGLEWVGGIDPETRQPVYAQKFQGRVTITKDTSASAAYMELSSLGSEDTALYYCARATYDPLTGYSFDGFDIWGQGTLVTVSSGGGGSGGGGSGGGGSQSVLTQPASVSGSPGQSITISCTGTSSDVGGYNYVSWYQQHPGKAPKLMIYEGSKRPSGVSNRFSGSKSGNTASLTISGLQAEDEADYYCSSYTTRSTRVFGGGTKLTVLG
Take B8: the binding result is given as “binds” in test [1]; “no binding” with TNF-beta; “no binding” with TRAIL; “binds” in test [2]; “no binding” in the test with Fas ligand; “no binding” with TNF-alpha.

B9: I001C09 (scFv)
scFv: GVQLVQSGPEVKKPGASVKVSCTASGYTFTSYGVSWVRQAPGQGLEWIGWISAHNGQTKYAEKFQGRVTMTRNTSISTAYMELSSLRSEDTAVYYCARDGSYDILTGYYIDNYMDVWGKGTMVTVSSGGGGSGGGGSGGGGSSELTQDPAVSVALGQTVRITCQGDSLRSYYTNWFQQKPGQAPLLVVYAKNKRPSGIPDRFSGSSSGNTASLTITGAQAEDEADYYCHSRDSSGNHVLFGGGTKLTVLG
Turning to B9, the binding result is given as “binds” in test [1]; “no binding” with TNF-beta; “no binding” with TRAIL; “binds” in test [2]; “no binding” with Fas ligand.

B10: I018D07 (scFv)
scFv: GVQLVQSGPEVKKPGASVIVSCTASGYTFTSYGVSWVRQAPGQGLEWIGWISAHNGQTKYAEKFQGRVTMTRNTSISTAYMELSSLRSEDTAVYYCARDGSYDILTGYYIDNYMDVWGKGTMVTVSSGGGGSGGGGSGGGGSSELTQDPAVSVALGQTVRITCQGDSLRSYYTNWFQQKPGQAPLLVVYAKNKRPSGIPDRFSGSSSGNTASLTITGAQAEDEADYYCHSRDSSGNHVLFGGGTKLTVLG
In the case of B10, the binding result in test [1] is “binds”; with TNF-beta, “no binding”; with TRAIL it was “no binding”; in test [2], “binds”; with Fas ligand, “no binding”.

B11: I008B01 (scFv)
scFv: QVQLVQSGAEVMKPGASVKVSCKASGYNFNNYAMQWVRQAPGQRLEWMGWIVPGNGKTKYSQKFQDRVTIARDTSASTVYMELSSLTSEDTAMYYCARATYDPLTGYSFDGFDIWGQGTTVTVSSGGGGSGGGGSGGGGSQSVLTQPASVSGSPGQSITISCTGTSSDVGGYNYVSWYQQHPGKAPKLMIYEGSKRPSGVSNRFSGSKSGNTASLTISGLQAEDEADYYCSSYTTRSTRVFGGGTKLTVLG
Take B11: the binding result in test [1] is recorded as “binds”; with TNF-beta, “no binding”; with TRAIL, “no binding”; in test [2], “binds”; in the test with Fas ligand, “no binding”; with TNF-alpha, “no binding”.

B12: I022E02 (scFv)
scFv: QVQLVQSGAEVKKPGASVMVSCKASGYTFSTYAVHWVRQAPGQGLEWMGRINAGNGYTKYSQKFQGRVTITKDTSASAAYMELSSLGSEDTALYYCARATYDPLTGYSFDGLDIWGKGTMVTVSSGGGGSGGGGSGGGGSQSVLTQPASVSGSPGQSITISCTGTSSDVGGYNYVSWYQQHPGKAPKLMIYEGSKRPSGVSNRFSGSKSGNTASLTISGLQAEDEADYYCSSYTTRSTRVFGGGTKLTVLG
On to B12, for which the binding result in test [1] was “binds”; with TNF-beta, “no binding”; in the test with TRAIL it was “no binding”; in test [2], “binds”; in the test with Fas ligand, “no binding”; with TNF-alpha it was “no binding”.

The values are drawn from patent US20110293610A1 (published 2011).
